Assay: yeast display, Sf9 membrane polyspecificity reagent, FACS + sequencing; frameworks hold sequencing errors
In short: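 A synthetic nanobody library was expressed on Saccharomyces cerevisiae BJ5465 by galactose induction for 36–48 hours. The library was stained for 1 hour at 4 °C with 10% biotinylated, detergent-solubilized Sf9 membrane reagent and enriched with streptavidin microbeads before FACS. Low and high (top ~1%) gates were set on anti-HA fluorescence for expression and streptavidin fluorescence for reagent binding, and each polyreactivity label reflects the gate of origin.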

| Sequence | polyreactivity (PSR sort gate) |
| --- | --- |
| QVQLVESGGGLVQAGGSLRLSCAASGRTSYGYAMGWYRQAPGKERELVAGISRSGSSTYYADSVKGRFTISRDNAKNTVYLQMNSMKPEDNAVYYCNAARPFNRVPRQTWKMGYWGQGTQVTVSS | high polyreactivity |
| QVQLVESGGGLVQAGGSLRLSCAASGSTLDSNAMGWYRQAPGKERELVAGIDWSGGSTYADSVKGRFTISRDNAKNTVYLQMNSLKPEDTAVYYCNRKLTRFTSFPLDYWGQGTQVTVSS | low polyreactivity |
| QVQIVESGGGLVQAGGSLRLSCAASGSSFTLYALGWYRQAPGKERELVAAISWSTTSTYYADSVKGRFTISRDNAKNTVYLQMNSLKPEDTAVYYCNARHWPLAYEYWGQGTQVTVSS | high polyreactivity |
| QVQLVESGGGLVQAGGSLRLICAASGSIFSFYAMGWYRQAPGKERELVAAITSDGSTDYADSVKGRFTISRDNAKNTVYLQMNCLKPEDTAVYYCAADYIVRVVSRYRYGYEYWGQGTQVTVSS | low polyreactivity |
| QVQLVESGGGLVQAGGSLRLRCAASGGIFGYYAMGLYRQAPGKERDFVAAITLSGGRTYYADSVKGRFTISRDNAKNTVYLQMNSLKPEDTAVYYCAAKGTRRGKERNYWGQGTQVTLSS | high polyreactivity |
| QVQLVESGGGLVQEGGSLRLSCAASGITFLQYAMGWYRQAPGKERELVAVISRGSRTYYADSVKGRFTISRDNAKNTVYLQMNCLQPDDTAVYYCAAVRGLALGYDYWGQGTQVTVSS | high polyreactivity |
| QVQLVESGGGLVQAGGSLRLSCAASGRTFAQYGMGWYRQAPGKERELVAAISRSGGRTYYADSVKGRFTISRDNAKNTVYLQMNSLKPEDTAVYYCAARAYLISSSTPFWTGYDSWGHGTQVTVSS | low polyreactivity |
| QVQLVESGGGLVQAGGSLRLSCDASGRIFRKYAMGWYRQAPGKERELVAGITWRGTSTYYADSVKGRFTISRDNAKNTVYLPMNSLKPEDTAVYYCAAEWKGYYVHDYWGQGTQVTVSS | high polyreactivity |
| QVQHVESGGGLVHAGGSLRLSCAASGRIFGGYAMGWYRQPPGKDREFVATISRSGSSTYYADSVKGRFTISRDNAKNTVYLQMNSLKPEDTAVYYCAAVIRRPNQWYWWTNSDYWGQGTQVTVSS | high polyreactivity |
| QVQLVESGGGLVQAGGSLRLSCAASGSTTHYYAMGWYRQAPGKEWELVASITWSVGSTYYADSVKGRFTISRDNAKNTVYLQMNSLKPEVTAVYYCAGRPFPRRYDYWGQGTQVTVSS | low polyreactivity |
| QVQLVESGGGLVQAGGSLRLSCAASGSIFGSYAMGWYRQAPGKERELVAAISSSGGSTYYADSVKGRFTISRVNAKNTVYFQMNSLKPEDTAVYYCNKYVRYGDGYWGQGTQVTVSS | high polyreactivity |
| QVQLVESGGGLVQAGGSLRLSCAASGRTFYVYAMGWYRHAPGKERELVASIRRSGGITYYADSVKGRFTISRDNAKNTVYLQMNSLKPEDTAVYYCNARRGPGRREYDYWGQGTQVTLSS | high polyreactivity |
| QVQLEESGGGLVQAGGSLRLSCAASGRIFGINALGWYRQAPGQERALVAAISRSGSRTYYADSVKGRFTISRDNAMNTVYLQMNSLKPEDTALYYCNARHQRFYAQPGDYWGQGTQVTVSS | high polyreactivity |
| QVQLVESGGGIVQAGGSLRLSCAASGRIFPHNAMGWDRQAPGKERELVAAITKSGDDTYYADSVKGRFTISRDNAKNTVYLQMNSLKPEDTAVYYCAAYLSWYDYWGQGTQVTVSS | low polyreactivity |
| QVQLVESGGGLVQAGGSLRLSCAASGRTFWRYAMGWYRQAPGKERELVARISSGGSTYYADSVKGRFTISRDNAKNTVYLQMNSLKPEDTAVYYCAVLSRHRRVPWYRYNYWGQGTQVTVSS | low polyreactivity |
| QVQLVESGGGLVQAGGSLRLSCAASGSIFVKNAMGWYRQAPGKERELVARSSFSGGSTYYADSVKGRFTISRDNAKNTVYLQMNSLKPEDTAVYYCAVDGGEFSSYGYWGQGTQVTVSS | low polyreactivity |
| QVQLVESGGGLVQAGGSLRLSCAASGSTFSQYVMGWYRQAPAKERELVAAISSGGSTYYADSVKGRFTISRDNAKNTVYLQMNSLKPEDTAVYYCAAKYDGSYVGLYWYSMNYWGQGTQVTVSS | low polyreactivity |
| QVQLVESGGGLVQAGGSLRFSCAASGSTFGDYTMGWYRQAPGKERELVAAISTSGTITYYADSVKGRFTISRDNAKNTVYLQMNSLKPEDTAVYYCAKLSQYTPVNDGYYWGQGTQVTVSS | low polyreactivity |
| QVQLVESGGGLVQAGGSLRLSCAASGRILNINAMGWYRQAPGKERELVAAITWRGGRTFYADSVKGRFTISRDNAKNTVYLQMNSLKPEDTAVYYCAASSNTWYPTGYYWGQGTQVTVSS | high polyreactivity |
| HDQHVESAGGLVQAGGSLRLSCAASGFILRWYAMGWYRQAPGKERELVAAISWSGGSTYYADSVKGRFTISRDNAKNTVYLQMNSEKPEVTAVYYCNAVNYRNKYDYWGQGTQVTVSS | high polyreactivity |
| QVQLVESGGGLVQAGGSLRLSCAASGSIFAGYVMGWYRPAPGKERELVAATYYADSVKGRFTISRDNAKNTVYLQMNSLKPEDTAVYYCNAESLYTHYNDTSLTVEYGYWGQGTQVTVSS | low polyreactivity |
| QVQLVESGGGLVQAGGSLRLSSAASGSIFRIYAMGWYRQAPGKERELVAAMSSGGSTYYADSVKGRFTISRDNAKNTVYLQMNSLKPEDTAVYYCAAYPEYVSGAWYDYWGQGTQVTLSS | low polyreactivity |

| Sequence | polyreactivity (PSR sort gate) |
| --- | --- |
| QVKLVDSGGGLVQAGGSLRLSCAASGRIIRINAMGWYRQAPGKERELVAAITRGGTTYADSVKGRFTISRDNAKNTVYLQMNSLKPEDTAVYYCNARTGRSPTGFRYWGQGTQVTVSS | high polyreactivity |
| QVQLVESGGGLVQAGGRLRLSCAASGGIFSAYAMGWYRQAPGTERELVAAISSGGSTKYADSVKGRVTISRDNAQNTVYLQMNSLKPEDTAVYYCAVLYIRWYTYEYWGQGAQVTVSS | high polyreactivity |
| QVQLVESCGGLVQPGGSLRLSCAASGSILKSYAMGWYRKAPGKERELVAAITYRDGSTYYADSVKGRFTISRDNSKNTVYLQMNSLKPEDTAVYYCAAEPSWWNVFYPGYNYWGQGTQVTVSS | high polyreactivity |
| QVQLVESGGGLVQAGGSLRLSCSASGSIFGSYAMGGYRQEPGNERELVAAISWRGGNTYYADSVKGRFTISRDNAKNTVYLQMNSLSPEDTAVYYCAAVAYSYGSYRRYYYWGLGTQVTVSS | high polyreactivity |
| QVQLVESGGGLVQAGGSLRLSCAASGSTFEYYAMGWYRQAPGKERELVAAISWSGGSTYYADSVKGRFTISRDNAKNTVYLQMNSLKPEDTAVYDCATDTGTSFYGINYGYDYWGQGTQVTVSS | low polyreactivity |
| QVQLVESGGGLVQAGGSLRLSCAASGLIFYAYAMGWYRPAPGKERELVAAITSGSGTNYADSVKGRFTISRDNAKNTVYLQMNSLKPEDTAVYYCNAETYGLVPYYIYHYDFDYWGQVTQVTVSS | high polyreactivity |
| QVQLVESGGGLVQAGGSLRLSCAASGLTFSYYTMGWYRQAPGKERELVAAISKSAGSTYYADSVKGRFTISRDNAKNTVYLQMNSLKPEDTAVYYCAARFGYQYSYGYNYWGQGTQVTVSS | high polyreactivity |
| QVQLVESGGGLVQAGGSLRLSRAASGFTLAYYAMGWYRQAPGKERELVAAITADTGTTYYADSVKGRFTISRDNAKNTVYLQMNSLKPEDTAVYYCATRDVFYDDDYWGQGTQVTVSS | high polyreactivity |
| QVQLVESGGGLVQAGGSLRLSCAASGSIFRFYAMGWYIQAPGKERELVAGITWSGASTYYADSVKGRFTISRDNAKNTVYLQMNSLKPEDNAVYYCSAKSLIVRYDSWGQGTQVTVSS | high polyreactivity |
| QVQLVESGGGLVQAGGSLRLSCAASGITFYYYAMGWYRQAPGKERELVAAIDTDGSTYYADSVKGRFTISRDNAKNTVYLQMNSLKPEDTAVYYCAAEIEYYPYSGYIYDYWGQGTQVTVSS | high polyreactivity |
| QVQLVESRGGLVQAGGSLRLSCGASGFIFKPYAMGWYRQAPGKERELVASISTGARTYYADSVKGRFTISRDNAKNTVYLQMNSLKPEDTGVYYCAAAYSRWITRYDYWGQGTQVTVSS | high polyreactivity |
| QVQLVESGGGLVQAGGSLRLSCAATGFFFGPYVMGWYRQATGKERELVAVITWTGGSTSYADSVKGRFTISRDNAKNTVYLQMNSLKREDTAVYYCAARTHQYRSRSYYYWGQGTQVTVSS | high polyreactivity |
| QVQLVESGGGLVQAGCSLRLSCAASGRTFGGYALGWYRQAPGKERELVAAISRGGNTYYADSVKGRFTISRDNAKNTVYLQMNSLKPEDTAVYYCNVARGNPVPPSEYWGQGTQVTVSS | low polyreactivity |
| QVQLVESGGGIVQAGGSLRLSCAASGRIFVGYAMGWYRQAPGKEREFVAAITFRGGTTYYADSVKGSFTISRDNAKNTVYLQMNSLKPEDTAVYYCAVPHYLYSVEYGYWGQGTQVTVSS | low polyreactivity |
| QVQLVESGGGLVQAGGSLRLSCAASGSTIWSYAMGWYRQAPGKERELVASITWSGGSTYADSVKGRFTISRDNAKNTVYLQMNSLKPEDTAVYYCARESTLTYYSDDFDYWGQGTQVTVSS | low polyreactivity |
| QVQLVESGGRLLQAGGSLRLSCAASGRIIGLYAMGWYRPAPGKEWEFVAAINWDGGSTFYADSVKGRFTISRDNAKNSVYLQMNSLQPEDTAVYYCAADVYSYVSNCTYVSVFTYDYWGHGTQVTVSS | low polyreactivity |
| QVQLVESGGGLVQAGGSLRLSCAASGSTLWYNAMGWYRQGPGKERELVASITSDGGSSTYADSVKGRFTISRDNAKYTVYLQMNSLKPEDTAVYYCAADWPIVQYDYWGQGTQVTVSS | low polyreactivity |
| QVQLVESGGGLVQAGGSLRLSCAASGRIFNLYAMGWYRQAPGKERELVAAISSGGSTYYADSVKGRFTISRDNAKNTVYLQMNSLKPEDTAVYYCAAKNGDRYARGYWGQGTQVTVSS | high polyreactivity |
| QVQLVESGGGLVQAGGSLRLSCAASGSTFEYNSMGWYRQAPGKERELVGSSTNYADSVKGRFTISRDNAKNTVYLQMNSLLPEYTAVYYCAREQGVNRNHDYWGQGTQVTVSS | low polyreactivity |
| QVQLVESGGGLVQAGGSLRLSCAASGSTFQGYAMGWYGQAPGKERELVAAINYSGGSTYYADSVKGRFTISRDNAKNTVYLQMNSLKPEDTAVYFCAARWYAVRDDYIVRYDYWGQGTQVTVSS | high polyreactivity |
| QVQLVESGGGLVQAGGSLRLSCAASGYTVYANAMGWYRQAPGKEREFVASITWSGGSTYYADSVKGRFSISRDNAKNPVYLQMNSLKPEDTAVYYCAAESWFKYDYWGQGTQVTVSS | low polyreactivity |

Source: the nanobody polyreactivity screen of Harvey et al. (2022)
